What was measured:
[1] = molecular target: Mouse CBP KIX (residues 586-683) (mouse) (UniProt P45481); test: NMR titration
[2] = molecular target: Mouse CBP KIX (residues 586-683) (mouse) (UniProt P45481); test: ITC
[3] = molecular target: CREB pKID αB peptide pKID αB helix (UniProt P16220); conditions: cited from earlier work

Substance | Kd [1] | Kd2 (site 2, two-site model) [2] | Kd [3]
CRTC1-MAML2 TAD1 polypeptide spanning residues 150-190 | 21 µM | 370 µM | –
CBP KIX (from UniProt P45481) | – | – | 80 µM

— paper PMC4564341
